Reference: a protein production outcome set (Wang et al. 2014)

Test: label from the status in PepcDB records
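Note: failed if final PepcDB status was selected cloned or expressed and not failed if soluble or beyond.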

Sequence | protein production
MPPRRRPHAGLTLPRILILNLLKALATISSLTMLSRITGLVREILIARAFGASDMTDAFNVAFRIPNLLRRIFAEGAFSQAFVPILNEYHGKRGHDETMSLVDAVATVMTWVLAAVSLLGVIGAPIVMTVVATGFRGDSETYNAAVFMTRVMFPYIGLISMVALASGILNTWRNFAVPAFTPVLLNLCLIVAALFVGPHMSQPIYAQAWGVLVGGVLQLVIQVPAMRKLGVMPRVSLNLRAAWANPGVRRVITQMLPALLAVSVAQISLIINTNIASRLGAGAVSYITYADRLMEFPTALLGVALGTILLPSLSRASAEDNREEYSGLLDWGLRLTFLLALPCAAGLMLFGTPITSVLFHYGRFDAHAVEMTQQALTTYGVGLLALILIKILTPGFYARQDIRTPVKIAILVLIITQASNYVFVPMLQHAGLPLSISFGATVNALLLFYGLRRRGYYHPAPGWGLFLLRLVAAMLILSGMLLWFARNFDWIALGATPGLRIALMGACLVLAATVYFGTLWLMGLRYSSFRRRAG | failed
MPQAKKRTSTKRKGNKKTNKKKQNETPLRYIFSIIVVILIILGAFQLGIIGRMIDSFFNYLFGMSRYLTYILVLIATIFITYSKQIPRTRRSIGAIVLQLALLFIAQLYFHFSHNITSQREPVLSFVYKAYEQTHFPNFGGGLIGFYLLKLFIPLISIVGVIIITILLLASSFILLLNLRHRDVTKSLFDNLKSSSNHASESIKQKREQNKIKKEEKAQLKEAKIERKKQKKSRQNNNVIKDVSDFPEISQSDDIPIYGHNEQEDKRPNTANQRQKRVLDNEQFQQSLPSTKNQSINNNQPSTTAENNQQQSQAEGSISEAGEEANIEYTVPPLSLLKQPTKQKTTSKAEVQRKGQVLESTLKNFGVNAKVTQIKIGPAVTQYEIQPAQGVKVSKIVNLHNDIALALAAKDVRIEAPIPGRSAVGIEVPNDKISLVTLKEVLEDKFPSKYKLEVGIGRDISGDPISIQLNEMPHLLVAGSTGSGKSVCINGIITSILLNTKPHEVKLMLIDPKMVELNVYNGIPHLLIPVVTNPHKASQALEKIVSEMERRYDLFQHSSTRNIEGYNQYIRKQNEELDEKQPELPYIVVIVDELADLMMVAGKEVENAIQRITQMARAAGIHLIVATQRPSVDVITGIIKNNIPSRIAFAVSSQTDSRTIIGAGGAEKLLGKGDMLYVGNGESTTTRIQGAFLSDQEVQDVVNYVVEQQKANYVKEMEPDAPVDKSEMKSEDALYDEAYLFVIEKQKASTSLLQRQFRIGYNRASRLMDDLERNQVIGPQKGSKPRQILVDLENDEV | failed
MPQDPTERRVVVTGPPRRARRAFDYYRPRTEIDEQTTLGHTYVRSLMRSQLRAGLAVFAVLVLLVGPLPLVFAAIPDARRLTWAVLGFCLYAPLVLLARWYVRRAERNERDFVRLVEDR | failed
MPQFASKAEEKNYYERQASLAEFLTWYHQQELPEYEKPSLTVDMVLLCYNKEADQLKVLLIQRKGHPFRNSWALPGGFVNRNESTEDSVLRETKEETGVVISQENIEQLHSFSRPDRDPRGWVVTVSYLAFIGEEPLIAGDDAKEVHWFNLERHGQHITLSHEDVEITLDLKTAASLGKDTLAFDHSEIIIKAFNRVVDKMEHEPQVLQVLGKDFTITEARKVFAKFLGVDYRSIDHSNFKKAMTQYFEELGERPVGIGRPSKIYQLKTTTGF | not failed
MPQHDKSRLVRIDTGPMINPVAGKPSRPIAGDASFRTVTAFEGGQGKVESGVWESTSGSFQSNTTGYIEYCHIIEGEARLVDPDGTVHAVKAGDAFIMPEGYTGRWEVDRHVKKIYFVTHLA | not failed
MPQPKKDKPDTPLRSDAQRNRERILAVATEELTHCANAPLSAIAKKAGVGQGTFYRNFPNREALVLEIYRYGMQQVAEAAPEMLATGEPDLALRQWMDRLAEFAMTKAGLADAIRLVTSAPGAPEKPRPTPLEDAAELLLRANHEAGTIRPGVTGDDFFLVLGGLWLIDPGENWQPRVTRFLDLVMDGLRAGAPGR | not failed
MPQSSRYSDEHVEQLLSEMVNVLEKHHAPTDLALMVLGNMVTNLINTSIAPAQRQILARSFAEALQASIKKADKAHLEHHHHHH | failed
MPQVALFGAVGAIGQSIARTLRSQGQPYRVVGRSQSSLLKAYGADPLAEPVTWDPDQPASVEAAAAGIDTLIYLVGVDYWRFELHPQLMRQTLDGAIAAGVRRILLIGTVYPYGMARSNPVAEQHPRQPNSFKGRMRKAQEDLLWKAHADGKIQATVLRLPDFYGPGVDKSLLHGAFQAAVQGGTANLVGPLDRPHEFVFVPDVGPVVCRLIQQPEAFGKTWHLGGAGVTSQRELLELIRQHGGARFKQRVIGKPLLRLLGLFDPLLREMVEMHYLISSPLILDDSALQALIGPIAKTSYTEGVRQTLAASAGAPQNVKR | failed
MPRALPRLPRPLLAVLSLSLTLGIAQADTAPLFSADGYRTTHYRSPTPQQVEGGQVVDTATLQSLLGQTPRPVLIDVYRRQWLQGRFIEDQPHSNLPGSLWLANTGDGELSPAWQDYFVRNLQKATAGHLDQPLVFYCRSDCWLSWNAVKRAKALGYNNLYWYRDGLDAWQQANLPLQPAQPVPFP | failed
MPRAPRCRAVRSLLRSHYREVLPLATFVRRLGPQGWRLVQRGDPAAFRALVAQCLVCVPWDARPPPAAPSFRQVSCLKELVARVLQRLCERGAKNVLAFGFALLDGARGGPPEAFTTSVRSYLPNTVTDALRGSGAWGLLLRRVGDDVLVHLLARCALFVLVAPSCAYQVCGPPLYQLGAATQARPPPHASGPRRRLGCE | failed
MPRITQEISYNCDYGDNTFNLAIDIGGTLAKVVFSPIHSNRLMFYTIETEKIDKFMELLHSIIKEHNNGCYRMTHIIATGGGAFKFYDLLYENFPQIKGISRFEEMEGLIHGLDFFIHEIPDEVFTYNDQDGERIIPTSSGTMDSKAIYPYLLVNIGSGVSILKVTEPNNFSRVGGSSLGGGTLWGLLSLITGAQTYDQMLDWAQEGDNSSVDMLVGDIYGTDYNKIGLKSSAIASSFGKVFQNRMTSNKSLENNENKLYSSHESIEKNNGQMFKNPDICKSLLFAISNNIGQIAYLQAKINNIQNIYFGGSYTRGHLTTMNTLSYAINFWSQGSKQAFFLKHEGYLGAMGAFLSASRHSSTKKTST | failed
MPRKQLKGETHDQKAQIASAFGEIEQSKIFLDKRSESAAVKMDIADLLKEIIQKQLRKDYDPEVESNIFINPERGDFEVYILKKIVKEVDLPTIEIGLDEVRQIDDSLELGDYYEEGPIKLDDYLTRKSIQIIKQSVQKKVRDLERLAVYEECLEKVGEVVAGEVYQVRPNEVIFTYNTSKDHRVELVLPKSEMMKKDNPRRTPRMKLYVKRIEREKVKVRNDDGTVEEREKPDGGMKVIVSRVDDRFLYKLFESEVPEILDGLIVIKGIARVPGERAKVAVESTSSRIDPVGATVGYRGKRIQSIVKELNNENIDVIYYTDEPQVFIARALQPAKIDPMTVHADMKTRKARVMLKPDQIKYAIGKNGNNIHLAEKLTGYEIDVYRDVIDKSLEDPNDIDIIEFREEFGDDMIYQLLDGGLDTAKKILKGGVEKIEEALLGTQKSEELFVFNKTRKPVKPKERRITDDEKRYWKKIAETIYRTVREQFNDEDLKALLDDSHERSLKGDGIDPEEIRDKETNLEHHHHHH | failed
MPRPLSHRNLPMTPQGHCDSRFAPLAEAFARLFDNPQERGAALCLEVGGETVVDLWGGVADKDGEQPWQRDTILNLFSCTKTFTAVAVLQLVAEGKLELDAPVAHYWPEFAAAGKAAISVRQLLCHRAGLPALREQMPPEALYDWQAMTTALAAEEPWWTPGEAHGYAPITYGWLLGEVIRRVDGREPGEAIVARTAAPLGLDFHVGLDDSQFGRVAHMARSKGSLGDAAAQRMLKTMMSEPLALTTRAFTNPPSILTSTNKPEWRRMQQPAANGHGNARALAGFYSGLLQGRLLEDELLGQLAHEHAVGEDRTLLTRTRFGLGTMLDQPGVANATYGLGPKAFGHPGAGGSIGFADPERDLAFSFVSNALGPYVLMDPRAQQLARVAGECL | failed
MPRSCDVVVVNYNAGLLLEDCVISVLAQDINRLVLVDNASHDGSLEQVATRFAADERLLILRNPSNTGFAAACNLGASHCEQPHILFLNPDTVLQPGALQGMIDALRHTHDLGMAGGLLCNFDGSEQPGGRRVFPTPRRAVVRALNLSGLAWLSPRLFSDFLLHREPLPSRPTQVEAISGACMLVKRKALDSVGGWDEGYFLHCEDLDLCMRFRQEGWKVCFVPQARIFHAWGACSRTRPVFVEWHKHRGMIRFYGKFFREDYPRVLSWSICAGVWLRFSFVVGYHWLAQLGRILGQPR | failed
